From patent US20080311122A1, “Antagonists of Hmgb1 and/or Rage and Methods of Use Thereof” (Medimmune, LLC, priority 2005, published 2008)
“Also recorded” adds a separate entry of the source.

T1: recombinant HMG1 binding to RAGE-Fc (Homo sapiens, UniProt P09429)
T1 construct: made in house; host or cells: E. coli (HMG1)
T1 sequence (P09429 1-215): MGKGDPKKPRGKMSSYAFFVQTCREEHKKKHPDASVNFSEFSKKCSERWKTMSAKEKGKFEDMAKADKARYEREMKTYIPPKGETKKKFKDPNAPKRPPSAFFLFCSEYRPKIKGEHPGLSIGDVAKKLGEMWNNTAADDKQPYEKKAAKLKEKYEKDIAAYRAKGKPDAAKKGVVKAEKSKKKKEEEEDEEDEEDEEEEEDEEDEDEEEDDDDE

T2: HMG2 (Bos taurus, UniProt P40673)
T2 construct: from tissue; host or cells: calf thymus (as read from the sentence)
T2 sequence (P40673 1-209): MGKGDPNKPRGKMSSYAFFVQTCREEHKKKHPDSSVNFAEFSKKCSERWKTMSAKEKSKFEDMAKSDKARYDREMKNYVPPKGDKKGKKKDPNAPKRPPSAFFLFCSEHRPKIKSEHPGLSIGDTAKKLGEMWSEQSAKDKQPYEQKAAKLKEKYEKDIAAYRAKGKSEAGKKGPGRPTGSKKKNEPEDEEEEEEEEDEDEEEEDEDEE


Legend:
[1] = molecular target: T1, recombinant HMG1 binding to RAGE-Fc; assay: HMG1 binding to RAGE-Ig by ELISA; details: at the concentrations tested
Description: HMG1 binding to RAGE-Ig by ELISA: 50 μl/well of RAGE-Fc fusion protein at 5 μg/ml in PBS was added to each well of an ELISA plate and incubated overnight at 4° C. The plate was then blocked with 200 μl of 5% milk at 37° C. for 1 hr and washed 3× with PBS/Tween. 50 μl/well of diluted HMGB1 solution. For dose curves, HMGB1 concentrations started at 4 ug/ml in PBS. For antibody blocking the HMGB1 was preincubated in another plate with human anti-HMG1 antibodies or buffer, then transferred to the RAGE-coated plate. The plates were then incubated at room temperature for 2 hours and washed 3×. To detect any HMG1 bound to the immobilized RAGE-Fc a mixture of biotinylated mouse anti-HMG1 mAbs (10D4, 4H11, 3E10 and 5C12) each at 1 ug/ml, total Ab: 4 ug/ml, were added to each well and the plate was incubated for 1 hour at room temperature. The plate was then washed and Strepavidin-HPR was added to each well and incubated 15 min. The plate was then washed 3× and blotted dry. 100 μl of TMB developing agent was added and the plate read at 650 nm. Values were calculated as percent of inhibition with HMG1 alone equal to 0% inhibition. The data in FIG. 9 and summarized in Table 1 represent the average of two separate experiments.

[2] = system: HMG1 (recombinant, native; immobilized, soluble); assay: Direct and sandwich (capture) ELISA comparing forms of HMG1; format: binding; details: for binding to immobilized versus soluble HMG1: two ELISA formats, rHMG1; for binding to recombinant HMG1 versus native HMG1: capture ELISA
Description: Direct ELISA (immobilized HMG1): Individual wells of a 96-well immunoplate (EIA/RIA plate, High binding, Costar) were coated with HMGB-1 at 5 μg/ml in PBS at 4° C. overnight. The plate was then blocked with 4% milk powder dissolved in PBS at 37° C. for 1 hour. The blocking solution was removed and replaced with human anti-HMG1 antibodies at various concentrations (see FIG. 4A). The plate was then washed (ELX-405 Plate washer, BIO-TEK) and secondary antibody (anti-human IgG-HRP, PIERCE) was added at a final concentration of 1:125,000 at 37° C. for 1 hour. HRP activity was detected with Sureblue HRP substrate (KPL). Plates were read at 450 nm using a Kinetic Microplate Reader (Molecular Devices).
Sandwich ELISA (soluble HMG1): Immunoplates (EIA/RIA plate, High binding, Costar) were coated with anti human IgG Fc at 10 μg/ml in PBS (pH 7.2) and incubated at 4° C. overnight. The coating reagent was removed and the plates were rinsed briefly with PBS. The plates were then blocked with 4% milk for 1 hour at 37° C. and rinsed with PBS. The anti-HMG1 antibodies were diluted in 4% milk. For serial dilutions, the antibodies were used at a starting concentration of 20 μg/ml. The diluted anti-HMG1 antibodies were then added into plate and incubated for 1 hr at 37° C. The plate was then washed 10 times with PBST (PBS/0.1% tween 20) and incubate with antigen (HMGB1, 2 μg/ml; or 0.7 μg/ml for native HMGB1) in 4% milk and incubated at 37° C. for 1 h. The plate was then wash 10 times and incubated with mouse anti-HMGB1, 1 μg/ml in 4% milk at 37° C. for 1 h. The plate was washed 10 times and incubated with anti-mouse IgG-HRP at 1:1000 at 37° C. for 1 h. The plate was then washed and developed. HRP activity was detected with Sureblue HRP substrate (KPL). Plates were read at 450 nm using a Kinetic Microplate Reader (Molecular Devices).

[3] = molecular target: T2, HMG2; assay: Binding to HMG1 vs. HMG2 ELISA; design: species or system calf; details: immobilized antigen
Description: Binding to HMG1 vs. HMG2: Ultra high-binding ELISA plates (ThermoLab systems, #3855) were coated with either 5 ug/mL of Calf thymus HMGB1 or HMBG2 diluted in 10 mM Phosphate buffered saline (PBS), pH 7.2 and incubate overnight at 4 degrees. The plates were washed twice with Ca and Mg free PBS and 100 microliters of anti-HMGB1 antibody diluted in 10 mM PBS, pH 7.2+1% bovine serum albumin (BSA) to a final concentration of 10 ug/mL was added to each well and the plates were incubated 1 hour at room temperature. The wells were washed three times with 100 μl of PBS, pH 7.2. HRP labeled goat-anti-human IgG Kappa-chain (KPL, #14-10-10) and goat-anti-human IgG Lambda-chain (KPL, #14-10-11) were diluted in 10 mM PBS+1% BSA 1:1000 and 100 μl were added to each well and incubated for 1 hour at room temperature. The wells were then washed three times with 100 μl of PBS, pH 7.2. OPD substrate (Pierce chemical company, #34006) was prepared following the manufacturers instructions and 100 μl of prepared substrate was added to each well and the plates incubated at room temperature in the dark for 20-30 minutes. The reaction was stopped with the addition of 100 μl of 2M H2SO4, and the plates read on a plate reader at a wavelength of 490 nm.

[4] = Isoelectric focusing gel electrophoresis; format: physicochemical
Description: Isoelectric Focusing Gel Electrophoresis: Isoelectric points were determined using a Pharmacia Biotech Multiphor 2 electrophoresis system with a multi temp 3 refrigerated bath recirculation unit and an EPS 3501 XL power supply. Pre-cast ampholine gels (Amersham Biosciences, pI range 2.5-10) were loaded with 5 μg of protein. Broad range pI marker standards (Amersham, pI range 3-10, 8 μL) were used to determine relative pI for the Mabs. Electrophoresis was performed at 1500 V, 50 mA for 105 minutes. The gel was fixed using a Sigma fixing solution (5×) diluted with purified water to 1×. Staining was performed overnight at room temperature using Simply Blue stain (Invitrogen). Destaining was carried out with a solution that consisted of 25% ethanol, 8% acetic acid and 67% purified water. Isoelectric points were determined using a Bio-Rad Densitometer relative to calibration curves of the standards.

| Molecule | relative binding to HMG1 and HMG2 [3] | block of recombinant HMG1 binding to RAGE [1] | binding to immobilized versus soluble HMG1 [2] | PI [4] | binding to recombinant HMG1 versus native HMG1 [2] |
| --- | --- | --- | --- | --- | --- |
| E11: human anti-HMG1 antibody, recognizes HMG1 A-Box; VL/VH aa SEQ ID NO: 24/26 (antibody, listed as Homo sapiens, V domains shown) VH: EVQLLESGGGLVQPGGSLRLSCAASGFTFSRYQMNWVRQAPGKGLEWVSSISPSGGHTHYADSVKGRFTISRDNSKNTLYLQMNSLRAEDTAVYYCAKDGRQGKISTVDHWGQGTLVTVSS VL: AQDIQMTQSPGTLSLSPGERATLSCRASQSVRSNFLAWYQQKPGQAPRLLIYGASRRASGIPDRFSGSGFGADFTLSISRLEPEDFAVYYCQQYGSSPNTFGQGSRVEIK | some binding to HMG2; also recorded: bind better to HMG2 than to HMG1; also recorded: higher binding affinity for HMG2 | – | bind better to soluble rHMG1; also recorded: higher affinity for soluble HMG1 | 8.92 | – |
| S16: human anti-HMG1 antibody, ATCC PTA-6259; VL/VH aa SEQ ID NO: 13/15 (antibody, listed as Homo sapiens, V domains shown) VH: EVQLLESGGGLVQPGGSLRLSCAASGFTFSWYSMLWVRQAPGKGLEWVSYISPSGGFTNYADSVKGRFTISRDNSKNTLYLQMNSLRAEDTAVYYCARWDYNSGWYYDHWGQGTLVTVSS VL: AQDIQMTQSPDTLSLSPGERATLSCRASQSVNSRNLAWYQQKPGQAPRLLIYGASTRATGIPDRFSGSVSGTEFTLTISSLQPDDFATYYCQQYNSYFTFGQGTKLEIK | some binding to both HMG1 and HMG2 | significant ability to block the binding of HMG1 to RAGE | bound slightly better to immobilized rHMG1 | 8.11 | binds both recombinant and native HMG1; also recorded: binding all forms of HMG1; also recorded: bind both forms of HMG1 |
| G20: human anti-HMG1 antibody; VL/VH aa SEQ ID NO: 46/48 (antibody, listed as Homo sapiens, V domains shown) VH: EVQLLESGGGLVQPGGSLRLSCAASGFTFSWYDMFWVRQAPGKGLEWVSWISPSGGYTKYADSVKGRFTISRDNSKNTLYLQMNSLRAEDTAMYYCARSGLDYYDSSGYLDAFDIWGQGTMVTVSS VL: AQDIQMTQSPSSVSASVGDRVTITCRASQDVSIWLAWYQQKPGKAPKLLIFGASRLQSGVPSRFSGSRSGADFTLTIDSVQPEDFASYYCQQADSFPLTFGGGTKVEIK | specific for HMG1 | do not at the concentrations tested | bind better to soluble rHMG1 | 7.8 | – |

More lines, main results first:

| relative binding to HMG1 and HMG2 [3] | Molecule | block of recombinant HMG1 binding to RAGE [1] | binding to immobilized versus soluble HMG1 [2] | PI [4] | binding to recombinant HMG1 versus native HMG1 [2] |
| --- | --- | --- | --- | --- | --- |
| specific for HMG1 | G9: human anti-HMG1 antibody; VL/VH aa SEQ ID NO: 34/36 (antibody, listed as Homo sapiens, V domains shown) VH: EVQLLESGGGLVQPGGSLRLSCAASGFTFSSYDMFWVRQAPGKGLEWVSRISPSGGYTYYADSVKGRFTISRDNSKNTLYLQMNSLRAEDTAVYYCARLRYFDSRGYAFDIWGQGTMVTVSS VL: AQDIQMTQSPGTLSLSPGERATLSCRASQSVRSSYLAWYQQKPGQAPRLLIYGASTRATGIPDRFSGSGSGTDFTLTISRLEPEDFAVYYCQQYGTSRWTFGQGTKVEIK | did not inhibit RAGE binding; also recorded: do not at the concentrations tested | little difference in binding to immobilized or soluble HMG1 | 9.01 | – |
| specific for HMG1 | S10: human anti-HMG1 antibody; VL/VH aa SEQ ID NO: 58/60 (antibody, listed as Homo sapiens, V domains shown) VH: EVQLLESGGGLVQPGGSLRLSCAASGFTFSWYDMWWVRQAPGKGLEWVSWIVPSGGITAYADSVKGRFTISRDNSKNTLYLQMNSLRAEDTATYYCARGNYGPSPFDYWGQGTLVTVSS VL: AQDIQMTQSPGTLSLSPGERATLSCRATQSVRKNFLAWYQQKPGQAPRLLIYDASSRATGIPDRFSGSGSGTDFTLTISRLEPEDFAVYYCQQYGNSPIIFGQGTRLEIK | significant ability to block the binding of HMG1 to RAGE | bound slightly better to immobilized rHMG1 | 8.76 | better binding to rHMG1; also recorded: discriminating between recombinant and the various native forms; also recorded: bind better to recombinant HMG1 than to native nuclear HMG1 |
| some binding to both HMG1 and HMG2 | S12: human anti-HMG1 antibody; VL/VH aa SEQ ID NO: 62/64 (antibody, listed as Homo sapiens, V domains shown) VH: EVQLLESGGGLVQPGGSLRLSCAASGFTFSKYIMHWVRQAPGKGLEWVSGIVPSGGLTEYADSVKGRFTISRDNSKNTLYLQMNSLRAEDTATYYCAKEIFGQFDYWGQGTLVTVSS VL: AQSALTQPPSVSAAPRQRVTISCSGSTSNIGNNAVTWYQYFPGKAPKLLIYSDNQRPSGVPDRFSGSKSGTSASLAITGLQAEDEADYYCQSYDRGLSVVFGGGTKLTVL | do not at the concentrations tested | bound slightly better to immobilized rHMG1 | 8.73 | – |
